The values that follow come from patent US20050026285A1 (Harvard, published 2005).

The target of test [1] is c-Jun (recombinant: overexpressed in 293T cells or in vitro translated). The experiment in a line: cell-based or functional assay.
Test [2] concerns the target c-Jun/c-Fos AP-1 complex. The experiment in a line: cell-based or functional assay.
Test [3] has as its target endogenous KRC of EL4 T cells (UniProt A2A884 1-2348, limits assumed). The experiment in a line: anti-c-Jun IP from PMA/ionomycin-stimulated EL4 cells, blot with anti-KRC antisera. The method, then:
(§1) FIG. 21(A) 293T cells were transfected with c-Jun and myc-KRCtr. 48 hours later, lysates were immunoprecipitated with anti-Myc antibody. Immunoprecipitates were probed by western blotting with anti-c-Jun antibody. FIG. 21(B) (left panel) 293T cells were cotransfected with c-Jun and full length His-KRC. 48 hours later, lysates were immunoprecipitated with anti-His antibody (DE8 Omniprobe) and precipitates were probed by western blotting with anti-c-Jun antibody. (right panel) In vitro translated and S35-labelled c-Jun and His-KRCtr were mixed and immunoprecipitated with anti-His antibody. Recovered c-Jun protein was visualized by autoradiography. FIG. 21(C) Jurkat or EL4 T cells were stimulated with PMA plus ionomycin for 45 minutes. Lysates were immunoprecipitated with anti-c-Jun antibody, and immunoprecipitates were probed with specific anti-KRC rabbit antisera. FIG. 21(D) (upper panel) 293T cells were transfected with AP-1 Luciferase along with c-Jun, c-Fos, and KRC. 24 hours later, Luciferase activity was determined as above. […] 24 hours later, luciferase activity was determined as above. […]

Test [4] addresses T1, endogenous KRC of Jurkat T cells (human, UniProt Q5T1R4 1-2406, limits assumed).
T1 construct: Detected with anti-KRC rabbit antisera in anti-c-Jun immunoprecipitates
Briefly: anti-c-Jun IP from PMA/ionomycin-stimulated Jurkat cells, blot with anti-KRC antisera. The method, then:
as §1

Sequence of endogenous KRC of EL4 T cells (A2A884 whole entry): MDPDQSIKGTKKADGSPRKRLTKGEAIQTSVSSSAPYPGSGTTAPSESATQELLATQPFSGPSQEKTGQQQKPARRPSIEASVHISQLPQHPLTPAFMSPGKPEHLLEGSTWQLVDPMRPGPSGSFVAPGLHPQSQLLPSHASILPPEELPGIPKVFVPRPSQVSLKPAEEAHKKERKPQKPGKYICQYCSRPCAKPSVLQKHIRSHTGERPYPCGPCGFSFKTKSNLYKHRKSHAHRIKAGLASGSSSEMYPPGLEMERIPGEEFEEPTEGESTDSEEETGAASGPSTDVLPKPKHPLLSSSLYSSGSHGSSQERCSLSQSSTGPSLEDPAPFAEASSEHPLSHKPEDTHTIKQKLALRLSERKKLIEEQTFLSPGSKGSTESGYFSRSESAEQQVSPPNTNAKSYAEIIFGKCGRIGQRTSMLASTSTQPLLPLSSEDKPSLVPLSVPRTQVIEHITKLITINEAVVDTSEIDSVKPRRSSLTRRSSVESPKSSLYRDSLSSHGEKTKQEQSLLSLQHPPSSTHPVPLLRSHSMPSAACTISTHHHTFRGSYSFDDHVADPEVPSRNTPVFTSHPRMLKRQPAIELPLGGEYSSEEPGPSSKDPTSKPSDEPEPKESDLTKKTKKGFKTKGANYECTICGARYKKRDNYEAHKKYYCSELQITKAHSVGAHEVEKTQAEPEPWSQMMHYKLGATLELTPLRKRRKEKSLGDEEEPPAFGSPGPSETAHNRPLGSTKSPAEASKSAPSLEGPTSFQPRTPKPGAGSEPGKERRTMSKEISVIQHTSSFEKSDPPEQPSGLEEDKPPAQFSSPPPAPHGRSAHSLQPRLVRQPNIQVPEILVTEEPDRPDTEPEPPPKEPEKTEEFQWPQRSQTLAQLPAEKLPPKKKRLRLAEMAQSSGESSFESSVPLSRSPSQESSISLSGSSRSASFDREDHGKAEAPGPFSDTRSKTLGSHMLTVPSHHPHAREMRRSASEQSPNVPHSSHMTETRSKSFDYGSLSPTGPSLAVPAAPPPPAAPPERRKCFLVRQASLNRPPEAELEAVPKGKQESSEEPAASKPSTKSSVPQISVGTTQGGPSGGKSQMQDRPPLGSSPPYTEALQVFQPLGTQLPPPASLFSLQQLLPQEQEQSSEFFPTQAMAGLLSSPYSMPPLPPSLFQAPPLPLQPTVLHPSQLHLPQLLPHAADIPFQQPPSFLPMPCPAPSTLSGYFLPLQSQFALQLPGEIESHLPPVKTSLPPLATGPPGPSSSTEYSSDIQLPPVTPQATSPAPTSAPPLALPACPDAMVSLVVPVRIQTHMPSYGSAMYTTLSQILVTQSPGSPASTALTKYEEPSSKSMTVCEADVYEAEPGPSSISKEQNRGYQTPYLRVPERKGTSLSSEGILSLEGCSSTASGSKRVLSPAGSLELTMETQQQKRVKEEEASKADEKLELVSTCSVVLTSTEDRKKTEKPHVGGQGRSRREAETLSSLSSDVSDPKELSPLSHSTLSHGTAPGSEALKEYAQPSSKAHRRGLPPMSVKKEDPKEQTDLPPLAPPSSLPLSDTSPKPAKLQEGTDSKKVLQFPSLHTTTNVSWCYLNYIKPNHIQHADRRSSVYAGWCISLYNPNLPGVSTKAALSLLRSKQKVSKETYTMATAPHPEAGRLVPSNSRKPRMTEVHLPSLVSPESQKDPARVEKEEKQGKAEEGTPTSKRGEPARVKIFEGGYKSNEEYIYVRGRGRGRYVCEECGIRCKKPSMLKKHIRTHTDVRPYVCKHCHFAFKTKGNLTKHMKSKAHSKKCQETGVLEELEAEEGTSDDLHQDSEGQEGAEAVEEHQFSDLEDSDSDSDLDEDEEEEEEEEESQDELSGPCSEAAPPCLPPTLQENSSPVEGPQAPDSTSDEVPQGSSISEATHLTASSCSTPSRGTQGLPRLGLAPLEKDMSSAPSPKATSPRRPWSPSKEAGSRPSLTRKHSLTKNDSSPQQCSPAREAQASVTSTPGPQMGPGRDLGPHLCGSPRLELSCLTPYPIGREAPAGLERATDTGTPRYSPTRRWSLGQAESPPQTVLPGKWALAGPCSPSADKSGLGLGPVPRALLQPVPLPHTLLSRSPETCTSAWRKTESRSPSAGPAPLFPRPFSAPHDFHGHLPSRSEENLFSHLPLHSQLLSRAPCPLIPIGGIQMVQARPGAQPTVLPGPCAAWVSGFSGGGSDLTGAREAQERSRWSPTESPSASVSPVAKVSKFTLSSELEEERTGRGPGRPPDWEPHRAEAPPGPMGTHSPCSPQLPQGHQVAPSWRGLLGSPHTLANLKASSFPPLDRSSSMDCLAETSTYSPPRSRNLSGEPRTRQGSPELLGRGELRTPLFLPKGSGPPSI
T1 sequence (Q5T1R4 whole entry): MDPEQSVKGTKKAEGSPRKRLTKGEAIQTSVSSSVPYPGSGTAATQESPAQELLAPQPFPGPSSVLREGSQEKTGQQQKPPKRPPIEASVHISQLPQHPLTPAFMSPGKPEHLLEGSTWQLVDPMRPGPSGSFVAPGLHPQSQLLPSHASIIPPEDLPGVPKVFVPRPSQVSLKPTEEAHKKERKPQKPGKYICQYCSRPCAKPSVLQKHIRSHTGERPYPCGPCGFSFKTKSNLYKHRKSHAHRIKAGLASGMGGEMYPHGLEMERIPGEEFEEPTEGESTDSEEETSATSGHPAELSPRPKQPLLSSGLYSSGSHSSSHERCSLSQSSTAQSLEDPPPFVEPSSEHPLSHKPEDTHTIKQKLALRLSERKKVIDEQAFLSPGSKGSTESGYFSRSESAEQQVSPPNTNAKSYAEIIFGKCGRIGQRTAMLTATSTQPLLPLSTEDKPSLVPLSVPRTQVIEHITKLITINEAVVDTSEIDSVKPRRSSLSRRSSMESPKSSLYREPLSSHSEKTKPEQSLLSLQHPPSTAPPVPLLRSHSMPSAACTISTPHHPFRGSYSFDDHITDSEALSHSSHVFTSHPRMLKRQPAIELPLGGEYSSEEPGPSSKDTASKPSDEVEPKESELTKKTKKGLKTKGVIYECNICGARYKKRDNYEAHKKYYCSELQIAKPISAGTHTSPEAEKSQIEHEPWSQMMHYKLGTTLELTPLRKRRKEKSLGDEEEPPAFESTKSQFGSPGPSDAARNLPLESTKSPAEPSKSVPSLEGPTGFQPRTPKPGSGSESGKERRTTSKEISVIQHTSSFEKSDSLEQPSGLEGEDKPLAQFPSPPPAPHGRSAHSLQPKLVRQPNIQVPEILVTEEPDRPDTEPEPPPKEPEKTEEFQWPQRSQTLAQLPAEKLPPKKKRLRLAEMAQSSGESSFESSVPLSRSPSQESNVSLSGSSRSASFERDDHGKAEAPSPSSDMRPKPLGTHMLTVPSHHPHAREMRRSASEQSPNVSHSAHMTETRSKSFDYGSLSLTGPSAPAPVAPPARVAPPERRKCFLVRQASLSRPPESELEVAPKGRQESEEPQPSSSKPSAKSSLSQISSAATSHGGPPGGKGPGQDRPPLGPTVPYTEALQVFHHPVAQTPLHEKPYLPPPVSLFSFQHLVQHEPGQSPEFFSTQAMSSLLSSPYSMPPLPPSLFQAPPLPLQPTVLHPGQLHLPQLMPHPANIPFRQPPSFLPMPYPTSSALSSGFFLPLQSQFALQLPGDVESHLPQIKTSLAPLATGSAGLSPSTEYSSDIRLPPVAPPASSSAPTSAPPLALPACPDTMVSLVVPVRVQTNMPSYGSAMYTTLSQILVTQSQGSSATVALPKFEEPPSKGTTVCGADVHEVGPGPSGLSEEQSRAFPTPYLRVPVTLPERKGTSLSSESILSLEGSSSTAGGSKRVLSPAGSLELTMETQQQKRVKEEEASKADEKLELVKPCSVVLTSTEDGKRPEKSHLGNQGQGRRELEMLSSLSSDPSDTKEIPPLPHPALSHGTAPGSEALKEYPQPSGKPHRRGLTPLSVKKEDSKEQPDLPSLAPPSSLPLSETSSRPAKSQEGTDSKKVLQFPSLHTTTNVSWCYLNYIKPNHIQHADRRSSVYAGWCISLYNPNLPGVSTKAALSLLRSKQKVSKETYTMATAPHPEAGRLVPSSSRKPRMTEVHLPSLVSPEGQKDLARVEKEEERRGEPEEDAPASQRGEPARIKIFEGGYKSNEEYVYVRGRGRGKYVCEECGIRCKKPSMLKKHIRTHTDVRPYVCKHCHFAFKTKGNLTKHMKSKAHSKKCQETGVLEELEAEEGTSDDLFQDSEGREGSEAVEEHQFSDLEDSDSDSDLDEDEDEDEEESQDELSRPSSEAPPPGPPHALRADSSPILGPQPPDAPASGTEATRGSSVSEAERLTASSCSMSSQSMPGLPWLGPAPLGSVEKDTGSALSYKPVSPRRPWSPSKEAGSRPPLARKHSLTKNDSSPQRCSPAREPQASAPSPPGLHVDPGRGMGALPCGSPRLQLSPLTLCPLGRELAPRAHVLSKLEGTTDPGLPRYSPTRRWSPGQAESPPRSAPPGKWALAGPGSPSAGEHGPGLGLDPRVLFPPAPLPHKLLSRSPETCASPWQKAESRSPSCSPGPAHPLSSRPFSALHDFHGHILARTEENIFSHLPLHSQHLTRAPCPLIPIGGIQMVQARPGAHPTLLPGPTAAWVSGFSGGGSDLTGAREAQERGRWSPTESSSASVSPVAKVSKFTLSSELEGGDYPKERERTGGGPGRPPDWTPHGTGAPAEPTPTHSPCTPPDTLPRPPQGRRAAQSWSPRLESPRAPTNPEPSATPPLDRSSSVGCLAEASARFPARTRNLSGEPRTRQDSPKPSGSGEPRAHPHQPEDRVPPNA

On to “KRC (full-length, overexpressed; tag or construct not further specified), Q5T1R4 1-2406”, for which, in test [1], the AP-1 luciferase reporter activity in 293T cells overexpressing c-Jun amounted to 5 fold. For the same molecule, the AP-1 luciferase reporter activity in 293T cells overexpressing c-Jun plus c-Fos in test [2] is 5 fold.

B1: endogenous c-Jun of EL4 T cells (other, UniProt P05627 1-334, looked up)
chain: MTAKMETTFYDDALNASFLQSESGAYGYSNPKILKQSMTLNLADPVGSLKPHLRAKNSDLLTSPDVGLLKLASPELERLIIQSSNGHITTTPTPTQFLCPKNVTDEQEGFAEGFVRALAELHSQNTLPSVTSAAQPVSGAGMVAPAVASVAGAGGGGGYSASLHSEPPVYANLSNFNPGALSSGGGAPSYGAAGLAFPSQPQQQQQPPQPPHHLPQQIPVQHPRLQALKEEPQTVPEMPGETPPLSPIDMESQERIKAERKRMRNRIAASKCRKRKLERIARLEEKVKTLKAQNSELASTANMLREQVAQLKQKVMNHVNSGCQLMLTQQLQTF
notes: also called AP-1 complexes
Take B1: the binding result in test [3] is on record as “binds”.

B2: endogenous c-Jun of Jurkat T cells (other, human, UniProt P05412 1-331, looked up)
chain: MTAKMETTFYDDALNASFLPSESGPYGYSNPKILKQSMTLNLADPVGSLKPHLRAKNSDLLTSPDVGLLKLASPELERLIIQSSNGHITTTPTPTQFLCPKNVTDEQEGFAEGFVRALAELHSQNTLPSVTSAAQPVNGAGMVAPAVASVAGGSGSGGFSASLHSEPPVYANLSNFNPGALSSGGGAPSYGAAGLAFPAQPQQQQQPPHHLPQQMPVQHPRLQALKEEPQTVPEMPGETPPLSPIDMESQERIKAERKRMRNRIAASKCRKRKLERIARLEEKVKTLKAQNSELASTANMLREQVAQLKQKVMNHVNSGCQLMLTQQLQTF
notes: also called AP-1 complexes
In the case of B2, in test [4], the binding result was “binds”.
